Four molecules from PMC10658506, “An engineered interleukin‐11 decoy cytokine inhibits receptor signaling and proliferation in lung adenocarcinoma” (Bioengineering & Translational Medicine, 2023) can be followed below.

Assay [1] addresses T1, soluble mouse IL-11 receptor (mouse, UniProt Q64385 24-372).
T1 construct: interleukin-11 receptor, mouse (mIL-11R), soluble; also called mIL-11R; source: bought: Sino Biological, 50,075-M08H-100
T1 sequence (looked up): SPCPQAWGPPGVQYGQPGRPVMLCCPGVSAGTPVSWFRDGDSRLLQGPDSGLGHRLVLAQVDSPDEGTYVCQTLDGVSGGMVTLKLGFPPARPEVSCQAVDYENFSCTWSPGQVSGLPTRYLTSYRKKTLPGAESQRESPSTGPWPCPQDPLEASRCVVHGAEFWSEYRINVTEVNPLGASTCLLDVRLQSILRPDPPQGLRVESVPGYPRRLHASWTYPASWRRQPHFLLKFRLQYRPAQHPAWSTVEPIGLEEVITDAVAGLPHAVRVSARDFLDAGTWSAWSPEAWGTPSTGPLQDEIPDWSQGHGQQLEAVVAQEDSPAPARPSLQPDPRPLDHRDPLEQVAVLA
Nature of the assay: flow cytometry on cells; yeast-displayed IL-11 variants incubated with varying concentrations of soluble IL-11R or mIL-11R overnight at room temperature, washed with BPBS; receptor detected with anti-his AF647, display with anti-c-myc; apparent Kd from the fraction bound of the expressing population. The conditions noted are these: one partner purified.

The target in assay [2] is T2, mIL-11R-mFc (mouse, UniProt Q64385 24-372).
T2 construct: interleukin-11 receptor, mouse (mIL-11R), mouse Fc fusion; also called mouse IL-11R; source: bought: R&D Systems, 7405-MR
T2 sequence (looked up): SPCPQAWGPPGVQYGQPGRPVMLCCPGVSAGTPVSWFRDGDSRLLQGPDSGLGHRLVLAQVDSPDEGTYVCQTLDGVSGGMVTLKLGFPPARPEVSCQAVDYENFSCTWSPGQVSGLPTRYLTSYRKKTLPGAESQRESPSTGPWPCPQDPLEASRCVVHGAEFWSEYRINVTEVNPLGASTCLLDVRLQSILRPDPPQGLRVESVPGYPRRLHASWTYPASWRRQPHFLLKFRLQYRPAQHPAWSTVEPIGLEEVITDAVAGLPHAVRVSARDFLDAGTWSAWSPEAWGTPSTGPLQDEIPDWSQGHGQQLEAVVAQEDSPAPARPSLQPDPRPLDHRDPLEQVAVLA
Nature of the assay: BLI; mIL-11R-mFc loaded on antimouse Fc biosensors at 1.25 ug/mL in kinetics buffer; three-fold serial dilutions of WT IL-11 or enIL-11; apparent Kd; binding to enIL-11 performed by Antibody Solutions. The conditions noted are these: both partners purified.

The target in assay [3] is T3, biotinylated IL-11R-Fc (human, UniProt Q14626 24-370, biotin).
T3 construct: interleukin-11 receptor (IL-11R), human, Fc fusion; source: bought: Acro, ILR-H82F5
T3 sequence (looked up): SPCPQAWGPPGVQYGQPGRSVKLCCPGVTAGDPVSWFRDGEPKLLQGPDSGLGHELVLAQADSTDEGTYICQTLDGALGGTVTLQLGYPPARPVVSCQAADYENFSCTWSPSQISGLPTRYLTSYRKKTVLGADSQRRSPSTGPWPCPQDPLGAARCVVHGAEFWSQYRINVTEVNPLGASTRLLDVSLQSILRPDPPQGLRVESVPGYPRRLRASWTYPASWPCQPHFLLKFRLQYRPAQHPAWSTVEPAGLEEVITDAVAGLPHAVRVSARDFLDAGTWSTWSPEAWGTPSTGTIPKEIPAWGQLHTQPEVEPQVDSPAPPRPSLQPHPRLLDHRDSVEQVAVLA
Nature of the assay: BLI; biotinylated IL-11R-Fc loaded on streptavidin biosensors at 1.25 ug/mL in kinetics buffer; three-fold serial dilutions of WT IL-11 or enIL-11; apparent Kd; binding to enIL-11 performed by Antibody Solutions. The conditions noted are these: both partners purified. For orientation: Biolayer interferometry detects binding as a change in optical thickness at a sensor tip.

B1: yeast-displayed mouse IL-11 wild-type (ligand, UniProt P47873 22-199, looked up)
chain: PGPPAGSPRVSSDPRADLDSAVLLTRSLLADTRQLAAQMRDKFPADGDHSLDSLPTLAMSAGTLGSLQLPGVLTRLRVDLMSYLRHVQWLRRAGGPSLKTLEPELGALQARLERLLRRLQLLMSRLALPQAAPDQPVIPLGPPASAWGSIRAAHAILGGLHLTLDWAVRGLLLLKTRL
notes: interleukin-11, mouse; also called mIL-11; mIL-11 WT; not shown: c-myc, C-terminal, kept
Consider B1, for which the Kd in assay [1] worked out at 3.1 ± 0.8 nM.

B2: soluble recombinant wild-type human IL-11 (ligand)
chain: SPDPRAELDSTVLLTRSLLADTRQLAAQLRDKFPADGDHNLDSLPTLAMSAGALGALQLPGVLTRLRADLLSYLRHVQWLRRAGGSSLKTLEPELGTLQARLDRLLRRLQLLMSRLALPQPPPDPPAPPLAPPSSAWGGIRAAHAILGGLHLTLDWAVRGLLLLKTRL
notes: interleukin-11 (IL-11), human; also called WT IL-11; IL-11 WT; source: E. coli BL21, purified (cobalt beads), cleaved with TEV protease; not shown: His6, N-terminal, cleaved; thioredoxin, N-terminal, cleaved
On to B2, for which the Kd stood at 11 ± 0.3 nM in assay [2] and 9.5 ± 0.3 nM in assay [3].

B3: enIL-11 (engineered human IL-11, GIPR RA S60T), soluble (designed binder)
chain: SPDPRAELGSIVLRTRSLLADTRQLAAQLRDKFPADGDHNLDSLPTPAMTARALGALQLPGVLTRLRADLLSYLRHVQWLRRAGGSSLKTLEPELGTLQARLDRLLRRLQLLMSRLALPQPPPDPPAPPLAPPSSAAGGIRAAHAILGGLHLTLDWAVRGLLLLKTRL
notes: interleukin-11 (IL-11), human; source: E. coli BL21, purified (cobalt beads), cleaved with TEV protease; not shown: His6, N-terminal, cleaved; thioredoxin, N-terminal, cleaved
Consider B3, for which the Kd stood at 0.16 ± 0.01 nM in assay [2] and 0.41 ± 0.01 nM in assay [3].

B4: yeast-displayed wild-type human IL-11 (ligand, UniProt P20809 22-199, looked up)
chain: PGPPPGPPRVSPDPRAELDSTVLLTRSLLADTRQLAAQLRDKFPADGDHNLDSLPTLAMSAGALGALQLPGVLTRLRADLLSYLRHVQWLRRAGGSSLKTLEPELGTLQARLDRLLRRLQLLMSRLALPQPPPDPPAPPLAPPSSAWGGIRAAHAILGGLHLTLDWAVRGLLLLKTRL
notes: interleukin-11 (IL-11), human, residues Pro22 to Leu199 of the precursor; also called IL-11 WT; WT IL-11; not shown: c-myc, C-terminal, kept
For the molecule B4, the Kd in assay [1] came to 2.2 ± 0.3 nM.
